± gives the uncertainty stated by the source.
B1: Far upstream element-binding protein 2, residues 142 to 214; numbered along this chain, Q92945 (parent)
chain: RTSMTEEYRVPDGMVGLIIGRGGEQINKIQQDSGCKVQISPDSGGLPERSVSLTGAPESVQKAKMMLDDIVSR

Variants of: B1
Assay: abundance fitness (aPCA) (normalised: wild type 0, dead -1); higher = more abundant; growth selection in yeast, the domain comes from the species named
Conditions: Homo sapiens

Abundance fitness: each site, then its substitutions
L46: H -0.117 ± 0.085; D -0.045 ± 0.06; N -0.144 ± 0.088; S 0.004 ± 0.044; C 0.031 ± 0.06; M -0.033 ± 0.055; W -0.171 ± 0.047; Q -0.052 ± 0.06; A -0.056 ± 0.051; F -0.097 ± 0.067; K 0.061 ± 0.063
I39: W -0.304 ± 0.055; Q -0.543 ± 0.064; S -0.572 ± 0.053; C -0.172 ± 0.075; K -0.701 ± 0.087; L -0.091 ± 0.043; R -0.645 ± 0.044; P -0.477 ± 0.052; V -0.045 ± 0.046; F -0.177 ± 0.09; A -0.457 ± 0.05; N -0.578 ± 0.11; G -0.648 ± 0.047; D -0.515 ± 0.09; Y -0.386 ± 0.085; E -0.728 ± 0.076
S43: M -0.101 ± 0.07; D -0.031 ± 0.06; T -0.012 ± 0.048; N -0.046 ± 0.075; V -0.11 ± 0.049; K -0.1 ± 0.064; Y -0.189 ± 0.081; L -0.116 ± 0.048; R -0.023 ± 0.041; H -0.113 ± 0.065; E -0.082 ± 0.053; G -0.034 ± 0.041; I -0.098 ± 0.086; W -0.212 ± 0.054; Q -0.027 ± 0.052; P -0.083 ± 0.044; F -0.328 ± 0.088; C -0.135 ± 0.066
G45: D -0.102 ± 0.07; T -0.079 ± 0.053; L -0.193 ± 0.05; M -0.208 ± 0.063; V -0.107 ± 0.046; E -0.064 ± 0.054; H -0.011 ± 0.095; A -0.211 ± 0.05; F -0.218 ± 0.081; S -0.113 ± 0.05; Q -0.1 ± 0.063; N -0.11 ± 0.076; C -0.168 ± 0.064; K -0.207 ± 0.066; W -0.351 ± 0.056; R -0.164 ± 0.042; Y -0.299 ± 0.1
P47: Y -0.028 ± 0.09; S -0.021 ± 0.049; V -0.146 ± 0.057; E -0.06 ± 0.06; Q -0.034 ± 0.06; G 0.002 ± 0.048; R -0.104 ± 0.043; T -0.018 ± 0.057; C -0.014 ± 0.076; L -0.094 ± 0.046; F -0.14 ± 0.081; D -0.002 ± 0.072; W -0.32 ± 0.059; I -0.168 ± 0.079; M -0.009 ± 0.07; K -0.016 ± 0.069; A 0.02 ± 0.048; N -0.13 ± 0.096
S50: A -0.04 ± 0.047; C 0.043 ± 0.071
P41: I -0.024 ± 0.094; H 0.035 ± 0.091; W -0.299 ± 0.06; N -0.141 ± 0.083; T -0.05 ± 0.056; M -0.09 ± 0.067; E -0.04 ± 0.055; A 0.007 ± 0.047; L -0.172 ± 0.048; S -0.017 ± 0.049; C -0.017 ± 0.084; Y -0.099 ± 0.092; R -0.061 ± 0.043; D 0.032 ± 0.087; F -0.122 ± 0.095; G -0.055 ± 0.044
Q31: Y -0.166 ± 0.13; K -0.137 ± 0.08; R -0.069 ± 0.039; I -0.135 ± 0.097; A -0.109 ± 0.046; E -0.08 ± 0.058; F -0.105 ± 0.096; D -0.16 ± 0.081; P -0.98 ± 0.065; H -0.005 ± 0.087; T 0.015 ± 0.057; S -0.136 ± 0.048; V -0.207 ± 0.05; W -0.316 ± 0.054; M -0.073 ± 0.071
E48: P -0.065 ± 0.056; T 0.006 ± 0.048; D -0.033 ± 0.069; Q -0.038 ± 0.059; V -0.103 ± 0.047; N -0.161 ± 0.12; K -0.158 ± 0.071; S -0.024 ± 0.045; H -0.007 ± 0.076; I -0.157 ± 0.085; R -0.12 ± 0.039; Y 0.103 ± 0.079; A -0.063 ± 0.043; G -0.044 ± 0.039; M -0.047 ± 0.057; L -0.12 ± 0.041; C -0.169 ± 0.069; F -0.109 ± 0.075
Q38: F -0.075 ± 0.12; K -0.068 ± 0.067; A 0.02 ± 0.044; C -0.019 ± 0.065; I -0.038 ± 0.11; V -0.001 ± 0.048; L -0.112 ± 0.05; H 0.095 ± 0.078; Y 0.027 ± 0.097; N -0.025 ± 0.082; P -0.831 ± 0.069; R -0.028 ± 0.039; G -0.172 ± 0.042; M 0.007 ± 0.069; T 0.033 ± 0.053; E 0.129 ± 0.054; D -0.112 ± 0.075
G34: F -0.887 ± 0.2; M -0.391 ± 0.074; R -0.307 ± 0.043; E -0.243 ± 0.056; Q -0.247 ± 0.07; S -0.357 ± 0.061; K -0.319 ± 0.068; N -0.219 ± 0.1; C -0.356 ± 0.077; A -0.365 ± 0.049; L -0.396 ± 0.057; I -0.877 ± 0.2; T -0.537 ± 0.07; Y -0.998 ± 0.15; H -0.384 ± 0.1; W -1.02 ± 0.087; V -0.96 ± 0.061; P -1.16 ± 0.13; D -0.274 ± 0.082

From the Human Domainome abundance scans (Beltran et al. 2025)
